Reference: patent US9701750B2

Tests used:
CD16B-Fc^SH (human) [1] = assay: SPR (BIAcore 2000), antigen immobilized, koff/kon
[2] = target: human CD16A-Fc^48R/158F fusion protein (human); assay: SPR (BIAcore 2000), antigen immobilized, koff/kon
[3] = target: human CD16A-Fc^48R/158V fusion protein (human); assay: SPR (BIAcore 2000), antigen immobilized, koff/kon
CD16B-Fc^NA1 (human) [4] = assay: SPR (BIAcore 2000), antigen immobilized, koff/kon
CD16B-Fc^NA2 (human) [5] = assay: SPR (BIAcore 2000), antigen immobilized, koff/kon
[6] = target: human CD16A-Fc^48R/158V fusion protein (human); assay: SPR (BIAcore 2000), CD16A-Fc immobilized, 1/1 Langmuir model
CD16B-Fc^SH (human) [7] = assay: SPR (BIAcore 2000), antigen immobilized
[8] = target: human CD16A-Fc^48R/158F fusion protein (human); assay: SPR (BIAcore 2000), antigen immobilized
[9] = target: human CD16A-Fc^48R/158V fusion protein (human); assay: SPR (BIAcore 2000), antigen immobilized
CD16B-Fc^NA1 (human) [10] = assay: SPR (BIAcore 2000), antigen immobilized
CD16B-Fc^NA2 (human) [11] = assay: SPR (BIAcore 2000), antigen immobilized
[12] = target: human CD16A-Fc^48R/158V fusion protein (human); assay: SPR (BIAcore 2000), CD16A-Fc immobilized, koff/kon
[13] = target: human CD16A (FcγRIIIA) on the cell surface (human) (UniProt P08637)

Substance: anti-CD16 murine monoclonal antibody A9
- Kd (CD16B-Fc^SH (human) [1]): 11.4 nM
- Kd [2]: 3.82 nM
- Kd [3]: 5.17 nM
- Kd (CD16B-Fc^NA1 (human) [4]): 8.91 nM
- Kd (CD16B-Fc^NA2 (human) [5]): 9.63 nM
- koff [6]: 0.000177 s⁻¹
- kon [6]: 101000 M⁻¹ s⁻¹
- koff (CD16B-Fc^SH (human) [7]): 0.000528 s⁻¹
- kon (CD16B-Fc^SH (human) [7]): 77900 M⁻¹ s⁻¹
- koff [8]: 0.00038 s⁻¹
- kon [8]: 99400 M⁻¹ s⁻¹
- koff [9]: 0.000406 s⁻¹
- kon [9]: 78600 M⁻¹ s⁻¹
- koff (CD16B-Fc^NA1 (human) [10]): 0.000487 s⁻¹
- kon (CD16B-Fc^NA1 (human) [10]): 77200 M⁻¹ s⁻¹
- koff (CD16B-Fc^NA2 (human) [11]): 0.000478 s⁻¹
- kon (CD16B-Fc^NA2 (human) [11]): 75700 M⁻¹ s⁻¹
- Kd [12]: 1.75 nM
- redirected lysis of FcR-positive P815 cells by freshly isolated NK cells (calcein release) [13]: 65%
